Measurements reported in paper PMC4601640, “Stability of the Human Hsp90-p50^Cdc37 Chaperone Complex against Nucleotides and Hsp90 Inhibitors, and the Influence of Phosphorylation by Casein Kinase 2” (Molecules, 2015).

T1: GST-p50^Cdc37 (human, UniProt Q16543 1-378)
T1 construct: p50 Cdc37, human, full length, residues 1-378, in pGEX6P-1; also called GST-tagged p50^Cdc37; source: E. coli BL21 (DE3), purified (glutathione sepharose, size exclusion); not shown: GST, N-terminal, kept
T1 sequence (looked up): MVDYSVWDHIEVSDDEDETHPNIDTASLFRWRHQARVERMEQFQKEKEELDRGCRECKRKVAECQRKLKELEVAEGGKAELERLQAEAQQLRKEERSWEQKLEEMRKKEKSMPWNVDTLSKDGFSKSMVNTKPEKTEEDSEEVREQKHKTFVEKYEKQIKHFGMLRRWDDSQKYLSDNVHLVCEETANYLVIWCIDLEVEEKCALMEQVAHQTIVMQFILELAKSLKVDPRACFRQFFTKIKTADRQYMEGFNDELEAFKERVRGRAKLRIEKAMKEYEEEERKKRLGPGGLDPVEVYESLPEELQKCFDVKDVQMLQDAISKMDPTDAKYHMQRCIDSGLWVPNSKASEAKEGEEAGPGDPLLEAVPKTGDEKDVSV

B1: human N-terminal Hsp90β (1-219) (domain or fragment)
chain: not shown
notes: Hsp90β, human, N-terminal domain, residues 1-219; Gene synthesised by GeneArt; pET28a; also called N-Hsp90; Hsp90β-N
B2: human Hsp90β (1-724 Δ220-275) (natural protein)
chain: not shown
notes: Hsp90β, human, residues before the deleted charged linker 220-275 of the construct 1-724; four glycine residues that replace the deleted section 220-275; Hsp90β, human, residues after the deleted charged linker 220-275 of the construct 1-724; Gene synthesised by GeneArt, codon optimised for E. coli; pET28a; also called ΔHsp90; ΔHsp90β
B3: human Hsp90α (1-732 Δ226-283) (natural protein)
chain: not shown
notes: Hsp90α, human, residues before the deleted section 226-283 of the construct 1-732; four glycine residues that replace the deleted section 226-283; Hsp90α, human, residues after the deleted section 226-283 of the construct 1-732; Gene synthesised by GeneArt; pET28a; also called ΔHsp90α
B4: human full-length p50^Cdc37 (residues 1-378) (natural protein, UniProt Q16543 1-378, looked up)
chain: T1 sequence (looked up)
notes: p50 Cdc37, human, full length, residues 1-378; Eluted as a dimer in size-exclusion chromatography; source: tag cleaved with PreScission protease
B5: CK2-phosphorylated human full-length p50^Cdc37 (natural protein, UniProt Q16543 1-378, looked up)
chain: T1 sequence (looked up)
modifications: phosphoserine at 13 (shown by Western blot)
notes: p50 Cdc37, human, full length, residues 1-378, phosphorylated by CK2α; also called (p)p50^Cdc37; source: E. coli Tuner (DE3), purified, then phosphorylated in vitro with purified CK2α and ATP

Experiments:
Details in all cases: both partners purified
[1] = molecular target: B4; test: ITC; p50^Cdc37 (200 µM) titrated into Hsp90 (20 µM); 50 mM HEPES pH 7.5, 10 mM MgCl2, 30 °C
GST-p50^Cdc37 = molecular target: T1, GST-p50^Cdc37; test: ELISA; GST-p50^Cdc37 (4 µM) immobilised on glutathione-coated plates; His6-Hsp90 (4 µM) pre-incubated with nucleotides and/or inhibitors in 5% DMSO, detected with anti-His6; 50 mM HEPES pH 7.5, 150 mM NaCl, 10 mM MgCl2, 0.05% Tween-20, 0.1% BSA; room temperature
human full-length Hsp90β [2] = molecular target: T2, human full-length Hsp90β (human, UniProt P08238 1-724); test: ITC; p50^Cdc37 (200 µM) titrated into Hsp90 (20 µM); 50 mM HEPES pH 7.5, 10 mM MgCl2, 30 °C
T2 construct: Hsp90β, human, full length, subcloned from T47D cell line cDNA into pET28a; Eluted as a dimer in size-exclusion chromatography; No step that removes the His6 tag is described; the tag is detected in the ELISA; also called hHsp90β-FL; His6-Hsp90

[3] = molecular target: T3, CK2-phosphorylated human full-length Hsp90β (human, UniProt P08238 1-724, phosphoserine at 255 (shown by Western blot); Ser226 named as a CK2 site, its phosphorylation could not be verified); test: as above
T3 construct: Hsp90β, human, full length, phosphorylated by CK2α; only pSer255 was checked; also called (p)Hsp90; h(p)Hsp90β-FL; source: E. coli BL21 Star (DE3), purified, then phosphorylated in vitro with purified CK2α and ATP

human full-length Hsp90β [4] = molecular target: T2, human full-length Hsp90β; test: SEC; analytical Superdex200 10/300 GL, room temperature, 0.3 mL/min; 85 µM protein in 50 mM HEPES pH 7.5, 50 mM KCl, 5 mM MgCl2, 1 mM DTT; fractions on SDS-PAGE

T3 sequence (P08238 whole entry): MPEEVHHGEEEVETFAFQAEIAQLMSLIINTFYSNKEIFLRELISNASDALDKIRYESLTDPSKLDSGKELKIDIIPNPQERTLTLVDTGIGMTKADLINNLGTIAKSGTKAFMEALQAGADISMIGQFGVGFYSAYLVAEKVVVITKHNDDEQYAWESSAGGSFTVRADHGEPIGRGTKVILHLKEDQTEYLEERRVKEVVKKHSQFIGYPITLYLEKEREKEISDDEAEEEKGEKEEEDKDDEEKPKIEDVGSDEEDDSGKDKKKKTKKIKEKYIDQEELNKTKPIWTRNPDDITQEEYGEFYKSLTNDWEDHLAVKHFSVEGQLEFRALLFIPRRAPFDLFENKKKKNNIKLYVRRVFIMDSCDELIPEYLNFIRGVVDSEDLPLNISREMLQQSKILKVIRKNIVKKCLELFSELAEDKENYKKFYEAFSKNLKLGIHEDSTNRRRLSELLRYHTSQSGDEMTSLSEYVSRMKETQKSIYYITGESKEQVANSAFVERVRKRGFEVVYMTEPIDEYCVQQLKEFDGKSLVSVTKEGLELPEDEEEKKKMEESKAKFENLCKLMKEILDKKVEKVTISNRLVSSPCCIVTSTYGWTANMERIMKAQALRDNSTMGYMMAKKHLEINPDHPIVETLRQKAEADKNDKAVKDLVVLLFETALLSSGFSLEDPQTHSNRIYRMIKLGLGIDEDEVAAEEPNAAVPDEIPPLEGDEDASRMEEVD

Kd [1] | Kd (human full-length Hsp90β [2]) | Kd [3] | Binder | other results
4.4 µM | – | – | B1 | –
1.1 µM | – | – | B2 | –
– | – | – | B3 | binding result (GST-p50^Cdc37): binds
– | 1.2 µM | 1.7 µM | B4 | stoichiometry N (human full-length Hsp90β [4]): 1
– | 5.1 µM | 8.6 µM | B5 | –
